Source: publication doi:10.1101/2025.05.16.654599 (bioRxiv, 2025)

T1: mNeon PPM1H (human, UniProt Q9ULR3 1-514)
T1 construct: PPM1H phosphatase, human, full length; mNeon inserted into loop 1 (residues 115-133) at position 125; mNeon is the fluorophore read in MST; not measured here; also called HisSUMO-mNeon PPM1H; His SUMO mNeon PPM1H; not shown: His-SUMO, N-terminal, cleaved; mNeon, internal (in loop 1 at position 125), kept
T1 sequence (looked up): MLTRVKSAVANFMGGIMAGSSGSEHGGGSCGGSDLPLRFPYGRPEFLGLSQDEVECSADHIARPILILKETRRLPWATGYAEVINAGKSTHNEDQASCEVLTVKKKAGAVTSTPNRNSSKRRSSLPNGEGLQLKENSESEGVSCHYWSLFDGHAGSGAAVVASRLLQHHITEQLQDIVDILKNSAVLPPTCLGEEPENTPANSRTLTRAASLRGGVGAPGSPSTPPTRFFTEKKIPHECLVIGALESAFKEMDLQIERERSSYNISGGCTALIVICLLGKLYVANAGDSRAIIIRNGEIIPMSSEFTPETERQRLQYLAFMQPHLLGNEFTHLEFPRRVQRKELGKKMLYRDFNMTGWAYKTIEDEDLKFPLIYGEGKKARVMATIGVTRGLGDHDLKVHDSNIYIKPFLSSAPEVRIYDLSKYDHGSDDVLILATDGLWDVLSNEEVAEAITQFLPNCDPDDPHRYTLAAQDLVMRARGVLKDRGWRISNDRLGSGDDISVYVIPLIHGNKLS


Columns and labels:
mNeon PPM1H (human) = mNeon PPM1H (human) (UniProt Q9ULR3); assay: MST; unlabeled Rab titrated (16 serial dilutions) against 100 nM fluorescent mNeon PPM1H form; Monolith NT.115; 30 min in the dark in a reaction buffer; 3 independent measurements with different protein preparations
mNeon PPM1H = biological target: T1, mNeon PPM1H; assay: as above; details: both partners purified

Molecule	Kd (mNeon PPM1H (human))	Kd (mNeon PPM1H)
His Rab8A (Q67L) full length (natural protein, human, UniProt P61006 1-207, looked up, Printed both as 'His Rab8A' and 'Rab8A-6XHis'; also called Rab8A-6XHis; non-phosphorylated Rab8A) MAKTYDYLFKLLLIGDSGVGKTCVLFRFSEDAFNSTFISTIGIDFKIRTIELDGKRIKLQIWDTAGLERFRTITTAYYRGAMGIMLVYDITNEKSFDNIRNWIRNIEEHASADVEKMILGNKCDVNDKRQVSKERGEKLALDYGIKFMETSAKANINVENAFFTLARDIKAKMDKKLEGNSPQGSNQGVKITPDQQKRSSFFRCVLL		1400 ± 980 nM
Rab10 (Q68L) full length (natural protein, human, UniProt P61026 1-200, looked up, also called His SUMO Rab10 (Q68L); non-phosphorylated Rab10; not shown: His-SUMO, N-terminal, cleaved) MAKKTYDLLFKLLLIGDSGVGKTCVLFRFSDDAFNTTFISTIGIDFKIKTVELQGKKIKLQIWDTAGLERFHTITTSYYRGAMGIMLVYDITNGKSFENISKWLRNIDEHANEDVERMLLGNKCDMDDKRVVPKGKGEQIAREHGIRFFETSAKANINIEKAFLTLAEDILRKTPVKEPNSENVDISSGGGVTGWKSKCC		1300 ± 900 nM

The next lines start with the values.

Kd (mNeon PPM1H (human))	Kd (mNeon PPM1H)	Molecule
7400 nM		Rab12 (Q101L) full length (from UniProt Q6IQ22-2 1-244) (natural protein)
	990 ± 630 nM	thio-phosphorylated Rab8A (natural protein, human, UniProt P61006 1-207, looked up, thio-phosphorylated with ATPγS by MST3 kinase (residue not given); fully modified by PhosTag gel, Rab8A GTPase, human, full length, non-prenylated, Q67L, thio-phosphorylated; Removal of His-MST3 before MST is not described for this preparation; also called thio-pRab8A; His pRab8A Q67L; source: E. coli, purified His Rab8A Q67L, then incubated overnight at 4°C with His-MST3 kinase and 2 mM ATPγS) MAKTYDYLFKLLLIGDSGVGKTCVLFRFSEDAFNSTFISTIGIDFKIRTIELDGKRIKLQIWDTAGLERFRTITTAYYRGAMGIMLVYDITNEKSFDNIRNWIRNIEEHASADVEKMILGNKCDVNDKRQVSKERGEKLALDYGIKFMETSAKANINVENAFFTLARDIKAKMDKKLEGNSPQGSNQGVKITPDQQKRSSFFRCVLL
